In publication PMC10896300:

Biological target: Recombinant 6×His-tagged CrMCA-II (Chlamydomonas reinhardtii)
Experiment: SEC; purified rCrMCA-II in buffer without DTT and Ca2+; with 1 mM DTT in the SEC buffer the dimer-to-monomer ratio decreased

stoichiometry N: 2
Substance: Recombinant 6×His-tagged CrMCA-II (enzyme)
